# Reference: publication PMC2990800 (Molecular and cellular endocrinology, 2010)
# B1: Adenosine A2A receptor (receptor, UniProt P29274 1-412, looked up)
# chain: MPIMGSSVYITVELAIAVLAILGNVLVCWAVWLNSNLQNVTNYFVVSLAAADIAVGVLAIPFAITISTGFCAACHGCLFIACFVLVLTQSSIFSLLAIAIDRYIAIRIPLRYNGLVTGTRAKGIIAICWVLSFAIGLTPMLGWNNCGQPKEGKNHSQGCGEGQVACLFEDVVPMNYMVYFNFFACVLVPLLLMLGVYLRIFLAARRQLKQMESQPLPGERARSTLQKEVHAAKSLAIIVGLFALCWLPLHIINCFTFFCPDCSHAPLWLMYLAIVLSHTNSVVNPFIYAYRIREFRQTFRKIIRSHVLRQQEPFKAAGTSARVLAAHGSDGEQVSLRLNGHPPGVWANGSAPHPERRPNGYALGLVSGGSAQESQGNTGLPDVELLSHELKGVCPEPPGLDDPLAQDGAGVS
# Biological target: the molecule itself
# Assay: FRET or BRET + split reporter
protein,measurement,value
B1,stoichiometry N,≥ 3
